Publication PMC12525431 (International Journal of Molecular Sciences, 2025)

Biological target: sTREM-1 (UniProt Q9NP99-2 21-150, labelled with Alexa Fluor 488 (Protein Labeling Kit))
Assay: MST; sTREM-1 labelled with Alexa Fluor 488; peptide in 16 concentrations by sequential dilution; 30 min in the dark at room temperature; Monolith NT.115, 8% IR laser power; at least three replicates
Details: both partners purified

Chain of sTREM-1 (Q9NP99 other isoform, or with tags, fused parts or gaps): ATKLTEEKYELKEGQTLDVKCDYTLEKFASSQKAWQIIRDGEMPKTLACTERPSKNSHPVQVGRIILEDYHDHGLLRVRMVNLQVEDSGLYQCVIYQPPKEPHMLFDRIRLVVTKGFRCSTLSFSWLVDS

B1: peptide N7 (16aa peptide of Hsp70) (peptide)
peptide: SDNQPGVLIQVYEGEK
notes: Hsp70, human; Found by MALDI-TOF in a trypsin hydrolysate of recombinant human Hsp70, then synthesised; also called N7 peptide; Hsp70 N7 peptide; source: synthetic peptide (Fmoc, purified by HPLC)
  Kd: 1.6 nM
